# In US9475855B2, “Human Notch3 based fusion proteins as decoy inhibitors of Notch3 signaling” (THE TRUSTEES OF COLUMBIA UNIVERSITY IN THE CITY OF NEW YORK, priority 2008, dated 2016):
# Tests used:
# [1] = system: MMP9; test: RT-PCR analysis of MMP9 expression in HUVEC; type: cell-based, human
# Experimental: FIGS. 24A-B show gelatin zymography analysis of MMP-9 and MMP-2 activity stimulated by VEGF in HUVEC. […] Transduced HUVEC were cultured on fibrin gel on the indicated day (i.e. D2, D4, D6, D8). Similar results were also obtained by using collagen gel, although induction of MMP-9 was stronger on fibrin gel than collagen gel (data not shown). […] HUVEC were transduced with Ad-N1ECDFc at the indicated doses and condition medium was collected from HUVEC cultured on collagen gel at day 4. FIGS. 24C-D show up-regulation of MMP-9 and MT1-MMP with Notch signaling. HUVEC were transduced with either Ad-LacZ or Ad-N1IC at 40 MOI. Numbers show PCR cycles. […] HUVEC were transduced with Ad-VEGF in the absence or presence of co-transduction of Ad-N1ECDFc at 40 MOI each. Ad-LacZ was co-transduced to make the same total amount of adenovirus at 80 MOI.
# Requisition of MMPs for angiogenic sprouting has been established by synthetic MMP inhibitors (16). GM6001 is one broad inhibitor against MMPs including MMP2, MMP9 and MT1-MMP (18).
# [2] = system: VEGF-induced angiogenesis; test: mouse Dorsa Air Sac (DAS) assay; type: in vivo
# Source text: These Figures show the role of Notch signaling in VEGF-dependent in vivo angiogenesis. FIGS. 25A-25D show inhibition of VEGF-induced angiogenesis with N1ECDFc in mouse DAS assay. Representative photographs are shown. FIG. 25A show subcutaneous induced angiogenesis with 293/VEGF transfectant versus 293/VEGF also expressing Notch decoy (Notch-based fusion protein) N1ECDFc. […] MDA-MB-231 breast cancer cells produce VEGF (data not shown).
# [3] = system: Ad-VEGF-infected HUVEC; test: VEGF-induced HUVEC budding (sprouting) on collagen gel; type: cell-based, human; conditions: for budding / morphology of HUVEC with Notch fusion protein alone: no Ad-VEGF
# Experimental: For making collagen gels, an ice-cold solution of porcine type I collagen (Nitta gelatin, Tokyo, Japan) was mixed with 10xRPMI1640 medium and neutralization buffer at the ratio of 8:1:1. 400 μl aliquots of collagen gel were then added to 24-well plates and allowed to gel for at least 1 hour at 37° C. Following adenoviral infection (above), HUVEC was harvested and plated at 1.3×10^5 cells per well onto the top of the collagen gel in 24-well plates in 0.8 ml of EGM2 medium. HUVEC became nearly confluent 48 hours after plating. After seeding, medium was changed every 2 days for 1 week. Sprouting was observed and photographs taken after 8 days with an Olympus digital camera mounted to a microscope. For quantification of the number of sprouts, 5 fields per each well were randomly selected and sprouting was counted under microscopy in a blind manner by two investigators.
# In this experiment, we evaluated the effect of Notch decoy on induction of budding (initiation of sprouting) by over-expressed VEGF-165 in HUVEC. When Ad-VEGF-infected HUVEC were cultured on type collagen gel for 8 days, budding was induced into collagen gel.
# [4] = system: HUVEC; test: HUVEC proliferation (CCK-8 kit); type: cell-based, human; conditions: transduced N1ECDFc, complete medium, 4 days
# Experimental: These Figures show proliferation of Ad-VEGF165-transduced HUVEC. HUVEC were transduced with Ad-VEGF165 at the indicated dosages. Ad-LacZ was also co-infected to make the same total amount of adenovirus at a MOI of 40 pfu/cell. HUVEC were suspended in SFM supplemented with 1% FBS and then plated at 1×10^4 cells/well in 24-well multi-wll plates with 0.4 ml of medium. After 4 days, cell numbers were determined using the CCK-8 kit and the results are indicated as the ratio of cell numbers determined to the number of control cells, which were transduced with Ad-GFP at a MOI of 40 pfu/cell. […] Ad-VEGF-transduced HUVEC were treated with SU5416 at the indicated dosages.
# These Figures show the effect of alteration of Notch signaling on cell proliferation. The cells were transduced with the indicated adenoviruses. Ad-GFP was also co-infected to make the same total amount of adenovirus at a MOI of 60 pfu/cell. After 4 days, cell numbers were determined using the CCK-8 kit and results are indicated as the ratio of cell numbers determined to the number of control cells, which were transduced with AD-GFP at MOI of 60 pfu/cell. […] Transduced HUVEC were suspended in complete medium and then plated at 1×10^4 cells/well in 24-well multiwell plates with 0.4 ml of indicated medium (□: Ad-N1IC; ▪: Ad-N1ECDFc). […]
# [5] = in vivo assays to model VEGF-induced skin neovascularization
molecule,measurement,setting,value
"N1ECDFc: Notch-based fusion protein or decoy: Notch1 extracellular domain EGF repeats fused to Fc; expressed from plasmid or adenovirus (Ad-N1ECDFc) (protein, left off: a dimerising Fc or GST) ARGLRCSQPSGTCLNGGRCEVANGTEACVCSGAFVGQRCQDPSPCLSTPCKNAGTCYVVDHGGIVDYACSCPLGFSGPLCLTPLANACLANPCRNGGTCDLLTLTEYKCRCPPGWSGKSCQQADPCASNPCANGGQCLPFESSYICGCPPGFHGPTCRQDVNECSQNPGLCRHGGTCHNEIGSYRCACRATHTGPHCELPYVPCSPSPCQNGGTCRPTGDTTHECACLPGFAGQNCEENVDDCPGNNCKNGGACVDGVNTYNCRCPPEWTGQYCTEDVDECQLMPNACQNAGTCHNSHGGYNCVCVNGWTGEDCSDNIDDCASAACFQGATCHDRVASFYCECPHGRTGLLCHLNDACISNPCNEGSNCDTNPVNGKAICTCPRGYTGPACSQDVDECALGANPCEHAGKCLNTLGSFECQCLQGYTGPRCEIDVNECISNPCQNDATCLDQIGEFQCICMPGYEGVYCEINTDECASSPCLHNGRCVDKINEFLCQCPKGFSGHLCQYDVDECASTPCKNGAKCLDGPNTYTCVCTEGYTGTHCEVDIDECDPDPCHIGLCKDGVATFTCLCQPGYTGHHCETNINECHSQPCRHGGTCQDRDNYYLCLCLKGTTGPNCEINLDDCASNPCDSGTCLDKIDGYECACEPGYTGSMCNVNIDECAGSPCHNGGTCEDGIAGFTCRCPEGYHDPTCLSEVNECNSNPCIHGACRDGLNGYKCDCAPGWSGTNCDINNNECESNPCVNGGTCKDMTSGYVCTCREGFSGPNCQTNINECASNPCLNQGTCIDDVAGYKCNCPLPYTGATCEVVLAPCATSPCKNSGVCKESEDYESFSCVCPTGWQGQTCEIDINECVKSPCRHGASCQNTNGSYRCLCQAGYTGRNCESDIDDCRPNPCHNGGSCTDGVNAAFCDCLPGFQGAFCEEDINECATNPCQNGANCTDCVDSYTCTCPTGFNGIHCENNTPDCTESSCFNGGTCVDGINSFTCLCPPGFTGSYCQYDVNECDSRPCLHGGTCQDSYGTYKCTCPQGYTGLNCQNLVRWCDSAPCKNGGKCWQTNTQYHCECRSGWTGFNCDVLSVSCEVAAQKRGIDVTLLCQHGGLCVDEEDKHYCHCQAGYTGSYCEDEVDECSPNPCQNGATCTDYLGGFSCKCVAGYHGSNCSEEINECLSQPCQNGGTCIDLTNTYKCSCPRGTQGVHCEINVDDCHPPLDPASRSPKCFNNGTCVDQVGGYTCTCPPGFVGERCEGDVNECLSNPCDPRGTQNCVQRVNDFHCECRAGHTGRRCESVINGCRGKPCRNGGVCAVASNTARGFICRCPARFEGATCENDARTCGSLRCLNGGTCISGPRSPTCLCLGSFTGPECQFPASSPCVGSNPCYNQGTCEPTSESPFYRCLCPAKFNGLLCHILDYSFTDLGPG",expression of MMP9,"[1]; Ad-N1ECDFc infection alone, Ad-LacZ infected HUVEC (data not shown)",did not affect
same,VEGF-induced up-regulation of MMP9 mRNA,"[1]; Ad-VEGF-HUVEC, co-transduction at 40 MOI each",inhibited
same,in vivo angiogenesis induced by MDA-MB-231,"[2]; adenovirus mediated expression of N1ECDFc, compared to adenovirus expressing LacZ",clearly inhibited
same,in vivo angiogenesis induced by 293/VEGF,"[2]; coexpression of N1ECDFc, compared to 293/VEGF alone",clearly inhibited
same,VEGF-induced neo-vascularization,[2]; [5],blocks
same,induction of VEGFR-1 expression,[2]; [5],blocks
same,cell number in VEGF-induced budding assay,[3]; FIG. 22I,without affecting cell number
same,budding of Ad-VEGF-HUVEC,[3]; collagen gel,clearly inhibited
same,budding / morphology of HUVEC with Notch fusion protein alone,[3],Neither Ad-LacZ or Ad-N1ECDFc-transduced HUVEC formed buds
same,budding / morphology of HUVEC with Notch fusion protein alone,[3]; listed as Notch fusion protein,less effect on morphology
same,proliferation of HUVEC,[4],did not clearly alter
